Reference: the RNAGym collection of RNA variant scans (doi:10.7554/elife.80360)

B1: CPEB3 Ribozyme (parent)
chain: GGGGGCCACAGCAGAAGCGUUCACGUCGCGGCCCCUGUCAGAUUCUGGUGAAUCUGCGAAUUCUGCUGU

Variants of: B1
Assay: self-cleavage, relative activity (ratio to wild type); higher = more cleavage; co-transcriptional

Variant | self-cleavage
G4A U69G | 0.985
G4A U69A | 0.912
G4A C63U | 0.84
G3U G68A | 0.554
G3C U46A | 0.113
G3C U46C | 0.126
G3C G65C | 0.0156
G3C G65U | 0.0451
G4C C12G | 0.148
G4C C12U | 0.608
G4C C12A | 0.166
G3U A10C | 0.332
G3U A10U | 0.424
G3U A8C | 0.146
G3U A8U | 0.121
G3U A8G | 0.0722
G3U G4A | 0.0885
G3U G4C | 0.0209
G3U U67A | 0.406
G3C U26C | 0.0733
G3C U26G | 0.0558
G3U U55C | 0.104
G3U G41A | 0.0442
G3U G41U | 0.0372

Variant | self-cleavage
G3U G41C | 0.0828
G4A U26C | 0.827
G4A G17A | 0.175
G4A G17C | 0.0965
G4A G5A | 0.103
G4A G5C | 0.113
G4A A13C | 0.588
G4A A13U | 0.66
G3C G56U | 0.033
G4A C66U | 0.852
G4A C66A | 0.743
G3C U20A | 0.0845
G3C U20G | 0.0823
G3C U62C | 0.0572
G3C U62G | 0.0946
G4A U61G | 0.508
G4A U61A | 0.477
G3U G37U | 0.0515
G3U G37A | 0.0344
G3U G37C | 0.035
G3C U53C | 0.0464
G3C U53G | 0.0664
G4A G50A | 0.839
G4A G50C | 0.808

Variant | self-cleavage
G4A G50U | 0.849
G3U U36C | 0.122
G3U U36G | 0.135
G4A C27A | 0.212
G4A C27U | 0.19
G4C A51G | 0.567
G4C A51C | 0.381
G4C A51U | 0.493
G3U C66G | 0.145
G3U C66U | 0.151
G4C A42U | 0.354
G4C A42C | 0.237
G3U G31A | 0.074
G3U G31U | 0.0468
G3U G58C | 0.0675
G3U G58A | 0.0734
G3U C33A | 0.102
G3U C33U | 0.0906
G4A C29G | 0.103
G4A C29U | 0.216
G4A G37A | 0.179
G4A G37C | 0.149
G4A G37U | 0.154
G4C C6A | 0.0438

Variant | self-cleavage
G4C C6G | 0.0309
G3U G48A | 0.245
G3U G30A | 0.0662
G3U G30U | 0.0357
G3U G30C | 0.0267
G3C G48C | 0.105
G3C G48U | 0.16
G4A G56U | 0.744
G4A G56C | 0.456
G3U C29U | 0.0459
G3U A59U | 0.0422
G3U A59C | 0.0549
G3U U44A | 0.0987
G3U U44G | 0.115
G3U U44C | 0.127
G4A U21G | 0.253
G4A U21C | 0.465
G4C A16G | 0.122
G4A C39A | 0.521
G4A C39U | 0.544
G3C U38A | 0.1
G3C U38G | 0.0344
G4C A40U | 0.228
G4C A40C | 0.202

Variant | self-cleavage
G4C A40G | 0.526
G3U C7A | 0.0696
G3U C7U | 0.0677
G3C U55C | 0.0498
G3C U55A | 0.0482
G3C U55G | 0.0373
G4A A23U | 0.886
G4A A23G | 0.827
G4A U62C | 0.587
G4C A59G | 0.37
G4C A59U | 0.203
G4A C45U | 0.909
G4A C45A | 0.808
G4A G41A | 0.506
G3U C27U | 0.0361
G3U C27G | 0.0583
G4A C12A | 0.477
G4A C12G | 0.5
G4A G30C | 0.188
G4A G30A | 0.294
G4A G30U | 0.0939
G4A C22G | 0.165
G4A C22U | 0.157
G4A G48A | 0.92

Variant | self-cleavage
G3U C57A | 0.0577
G3U C57U | 0.0383
G3U C45U | 0.162
G4A G28C | 0.162
G4A G28U | 0.127
G3U A60G | 0.0646
G3U A60C | 0.0666
G3U A60U | 0.0237
G3U C12A | 0.0925
G3U C63U | 0.114
G4A U43G | 0.511
G4A U43A | 0.683
G4A U43C | 0.651
G4C C7A | 0.0992
G4C C7U | 0.129
G3U G56U | 0.109
G3U G56C | 0.0723
G3U U64C | 0.132
G3U U64A | 0.128
G3U U64G | 0.138
G4A U44G | 0.558
G4A U44A | 0.646
G4A U44C | 0.679
G3U U26C | 0.107

Variant | self-cleavage
G3U U26G | 0.0677
G3U G47C | 0.177
G3U G47U | 0.175
G4A C32A | 0.216
G4A A59C | 0.32
G4A A59U | 0.283
G4A A59G | 0.749
G4A G65A | 0.735
G4A G65U | 0.406
G4A G65C | 0.418
G4A C33G | 0.68
G4A A51U | 0.804
G4A U53C | 0.617
G4A C6A | 0.0589
G3U C39G | 0.0714
G3U C39A | 0.0589
G3U C39U | 0.043
G3U U46G | 0.161
G3U U46C | 0.105
G4A C7A | 0.0893
G4A C7U | 0.458
G4A C24U | 0.352
G4A C24G | 0.177
